For one test, the target named is T1, P991_AMBCA (Amblyomma cajennense, UniProt A0A023FFD0 29-136).
T1 construct: His-tagged in BLI
T1 sequence: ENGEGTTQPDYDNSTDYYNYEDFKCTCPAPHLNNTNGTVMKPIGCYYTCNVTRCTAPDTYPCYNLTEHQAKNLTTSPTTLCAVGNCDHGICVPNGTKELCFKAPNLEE
The test can be described thus: BLI. (In general: Biolayer interferometry detects binding as a change in optical thickness at a sensor tip.)

The next test deals with T2, P672_RHIPU (Rhipicephalus pulchellus, UniProt L7MC74 22-125).
T2 sequence: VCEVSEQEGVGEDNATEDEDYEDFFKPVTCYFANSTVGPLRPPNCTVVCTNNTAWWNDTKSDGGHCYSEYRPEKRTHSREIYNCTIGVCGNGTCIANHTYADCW
The experiment in a line: BLI.

For the next test, the target named is T3, CXCL9_HUMAN (human, UniProt Q07325 23-125).
T3 sequence: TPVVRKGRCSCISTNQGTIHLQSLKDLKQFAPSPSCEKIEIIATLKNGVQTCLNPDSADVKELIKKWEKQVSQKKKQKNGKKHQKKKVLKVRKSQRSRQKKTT
The experiment in a line: YSD FACS.

The target in test [1] is T4, CXCL10_HUMAN (human, UniProt P02778 22-98).
T4 sequence: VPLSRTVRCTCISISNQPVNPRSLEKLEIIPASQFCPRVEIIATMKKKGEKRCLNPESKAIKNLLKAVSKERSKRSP
The experiment in a line: YSD FACS.

The target of test [2] is T4, CXCL10_HUMAN. The test can be described thus: YSD.
The next test deals with T5, P974_AMBCA (Amblyomma cajennense, UniProt A0A023FDY8 22-118).
T5 construct: His-tagged in BLI
T5 sequence: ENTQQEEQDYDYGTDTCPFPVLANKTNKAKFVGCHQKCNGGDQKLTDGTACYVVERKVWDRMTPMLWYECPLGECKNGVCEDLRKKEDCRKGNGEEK
The test can be described thus: BLI.

For another test, the target named is T6, P546_AMBCA (Amblyomma cajennense, UniProt A0A023FBW7 22-118).
T6 construct: His-tagged in BLI
T6 sequence: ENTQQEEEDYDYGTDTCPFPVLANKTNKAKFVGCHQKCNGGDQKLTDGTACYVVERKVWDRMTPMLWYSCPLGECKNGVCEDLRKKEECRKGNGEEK
The test can be described thus: BLI.

In a further test the target is T7, P985_AMBPA (Amblyomma parvum, UniProt A0A023FT45 25-132).
T7 construct: His-tagged in BLI
T7 sequence: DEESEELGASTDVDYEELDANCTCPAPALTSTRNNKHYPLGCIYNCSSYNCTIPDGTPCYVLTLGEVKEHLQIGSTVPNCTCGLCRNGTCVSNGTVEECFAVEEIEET
The test can be described thus: BLI.

For another test, the target named is CXCL12_HUMAN (human, UniProt P48061 22-89). The experiment in a line: YSD FACS.
Sequence of CXCL12_HUMAN (P48061 22-89 limits assumed): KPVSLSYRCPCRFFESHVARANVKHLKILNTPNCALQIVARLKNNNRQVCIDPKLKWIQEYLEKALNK
The target of the next test is T8, CCL25_HUMAN (human, UniProt O15444 24-150).
T8 sequence: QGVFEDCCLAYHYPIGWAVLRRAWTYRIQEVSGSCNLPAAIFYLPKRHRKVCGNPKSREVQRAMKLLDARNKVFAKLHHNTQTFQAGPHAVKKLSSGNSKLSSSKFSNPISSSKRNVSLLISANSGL
The experiment in a line: YSD.

The target of a further test is T9, CXCL8_HUMAN (human, UniProt P10145 28-99).
T9 sequence: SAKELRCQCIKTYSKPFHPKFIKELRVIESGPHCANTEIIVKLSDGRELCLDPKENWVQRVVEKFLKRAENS
The test can be described thus: YSD.

Data on 20 molecules can be found in patent US20200247855A1 (published 2020).

B1: CCL23_HUMAN (ligand)
chain: RVTKDAETEFMMSKLPLENPVLLDRFHATSADCCISYTPRSIPCSLLESYFETNSECSKPGVIFLTKKGRRFCANPSDKQVQVCMRMLKLDTRIKTRKN
As usually defined, the Kd is the free concentration of one partner at which half of the binding sites on the other are occupied at equilibrium, for simple one-to-one binding. A lower Kd goes with tighter binding. In the case of B1, the Kd worked out at 5.58 nM in the test with P991_AMBCA and 10 nM with P672_RHIPU.

B2: P1086_IXORI (other)
chain: GSKGQRASQVSETSITAEFCDTSCTQGTDKTWSGCSGDCFCVHVGNDTEGRCMRWDGDYPSAEEEE
notes: yeast surface display
On to B2, for which the “% cells over threshold fluorescence” value with CXCL9_HUMAN stood at 54%.

B3: P1100_IXORI (other)
chain: GSKGSSASQSSDNSVVAKFCDTNCTINEGGKWTECKGGCFCVHVGNETVGRCMKLDGDYDYPSPKPEE
notes: yeast surface display
Regarding B3, in the test with CXCL9_HUMAN, the “% cells over threshold fluorescence” value came out at 55%.

B4: P1096_IXORI (other)
chain: HTTVTGSVEGKPNNPNEDIEVSYCRMNCTVENGVSSACSGDCVCVHRDNEPNGICVEITYFGDFGDPSQDPSIDEAAPRESVSKRRSNGES
notes: yeast surface display
For the molecule B4, in the test with CXCL10_HUMAN [1], the “% cells over threshold fluorescence” value is 50%.

B5: P458_IXORI (other)
chain: GSKQPGAAGSSSDSVEAVFCPTNCTKGTNGAWSGCSDDCICVHVGENTEGSCMKFSGDYDYPTPEA
notes: yeast surface display
Regarding B5, the “% cells over threshold fluorescence” value in the test with CXCL9_HUMAN amounted to 37%.

B6: P1224_IXORI (other)
chain: SDLCKMEAESSPFKLPQSSLLDAPDEEGCKYQLLFVEAEGPLVVNCTKDCPNGKIRTVVEGELCIAMVKTSSSGEATGLVGSCKRGSCVKKDDPCRTFTLSEEGDDDEEDEEEEEDEEEDEEEDEEEEEEDEEEED
notes: yeast surface display
Turning to B6, the binding result with CXCL10_HUMAN [2] is “binds”.

B7: P1134_IXORI (other)
chain: NEEVFTVEYCGMNCTQKSDGTWTECSGKNKDCRCYHESDAREGLCLSTEYTDFSQFETPSNSDLEAATPRPRKTLYPVRNPHGPKTRGLGYDKRILRDRVKFLI
notes: yeast surface display
B7: in the test with CXCL10_HUMAN [1], the “% cells over threshold fluorescence” value came out at 66%.

B8: CCL22_HUMAN (ligand)
chain: GPYGANMEDSVCCRDYVRYRLPLRVVKHFYWTSDSCPRPGVVLLTFRDKEICADPRVPWVKMILNKLSQ
On to B8, for which the Kd was 16.5 nM with P974_AMBCA, 3.97 nM with P991_AMBCA and 27 nM in the test with P546_AMBCA.

B9: P1283_IXORI (other)
chain: KEPEDTTLPPGALVDSPDSDNCSSPHLPYFDETTNMWMGFLAVNCTKKCPVGKHVTVVDGNKCIGTWSFLDELTITVLVGSCKDGFCETDGSSECRNITLAEEDSQEEEGAAAEEEDEEDEEDEEEEEAEEEREDDHDDA
notes: yeast surface display
As for B9, in the test with CXCL10_HUMAN [2], the binding result was “binds”.

B10: CCL27_HUMAN (ligand)
chain: FLLPPSTACCTQLYRKPLSDKLLRKVIQVELQEADGDCHLQAFVLHLAQRSICIHPQNPSLSQWFEHQERKLHGTLPKLNFGMLRKMG
As to B10, in the test with P991_AMBCA, the affinity, expressed as Kd, was 38.9 nM.

B11: P1126_AMBCA (other)
chain: KPQILQRTDKSTDSEWDPQTCPETCIPSKNITCSDGCVCVKLGEEEEGTCFNMTGVDWLGSPSDD
notes: yeast surface display
For the molecule B11, the “% cells over threshold fluorescence” value with CXCL9_HUMAN is 56%.

B12: P1219_IXORI (other)
chain: ASLAKETEDTTLPARALVDSPDSDNCSSPQLPYFDELTYMPLGFLAVNCTKTCPVGKNGTVVNGNKCIVTWSILDVSTITVLVGSCKNGYCISDGSSECRNITLAGEDSQEEEEEAEEDEEEDDGDEEEDEEEDEEENDDD
notes: yeast surface display
For B12, in the test with CXCL10_HUMAN [2], the binding result was “binds”.

B13: CCL24_HUMAN (ligand)
chain: VVIPSPCCMFFVSKRIPENRVVSYQLSSRSTCLKAGVIFTTKKGQQFCGDPKQEWVQRYMKNLDAKQKKASPRARAVA
For the molecule B13, the equilibrium dissociation constant (Kd) with P985_AMBPA turned out to be 41 nM; with P991_AMBCA, 6.54 nM.

B14: P1095_IXORI (other)
chain: HSPVAGSEVQKLTSDPNDDIDVSYCGMNCTVVNGKSDECSENCKCLHEGDDPKGICVAITYFGDWGDPNDDPKINEATPQTQIFEKKRK
notes: yeast surface display
Turning to B14, the “% cells over threshold fluorescence” value with CXCL12_HUMAN came to 47%.

B15: P1220_IXORI (other)
chain: GSTPSAMKTEDILKVLGSTSSLENHTDSSHCRYQELLDITKNIENAGFLAINCQRSCPNGKQTMVEGYGCIFKIKHATKRGKVKVKEGSCRKGACVRGSTRPPWRLLVLLGESKEEEFL
notes: yeast surface display
B15: the binding result with CCL25_HUMAN is “binds”.

B16: P1124_IXORI (other)
chain: DSKGTSDSQDSTKSIKVDFCETNCTKTDGGWTGCTGDCICVSVGDSIEGRCMDFG
notes: yeast surface display
With B16, the “% cells over threshold fluorescence” value with CXCL9_HUMAN was 31%.

B17: P1030_AMBPA (other)
chain: GPPSIPGNESIPGCGDAGTTTAPEDNPKHYGTLTDKKGCTLPIIGTWMTAVDHQHLQGTRGERRGPTGKVNLPASCRKNCHGRQEILRDGIPCRKVVGNPKGSKKHLKSGCLRGKCLAGQCVNDGRRISCYVPRNITDTEPTPGLLAE
notes: yeast surface display
As to B17, the binding result with CXCL8_HUMAN is on record as “binds”.

B18: P1080_IXORI (other)
chain: SAGSKGSSAPQSSGDSVVAEFCDTNCTMKKDGKWTECNGDCFCVHVGNETVGRCMRLDGDYDYTSSKTTRRNKKTRNGLCRLDRNRTTVDYPERNTREP
notes: yeast surface display
As to B18, the “% cells over threshold fluorescence” value in the test with CXCL12_HUMAN was 53%; with CXCL9_HUMAN, 49%.

B19: P993_AMBPA (other)
chain: HRHYDPNEPCLIAGLKTPRDALPAGCRYDCMIKKNQKLRDGLLCLDVPEKVVKRMVNYLNYSCPLGTCRKGICKRKHRNVRCQKYPVFYMSPPK
notes: yeast surface display
Take B19: the binding result in the test with CXCL8_HUMAN is “binds”.

B20: P1074_IXORI (other)
chain: GSKESSAHQSSDDSIKAEFCDAKCTMKTDGKWTQCHGGCFCVHVGNETEGRCMRLDGDYDYPSTQPEE
notes: yeast surface display
On to B20, for which the “% cells over threshold fluorescence” value with CXCL9_HUMAN is 35%.
